Kd data for two substances are collected here from publication doi:10.1101/2024.04.30.591854.

pKd: −log10 of the molar value.

In general, pKd refers to the negative decadic logarithm of the Kd, by convention in mol/L.

The test addresses RBK21 variable region (residues 148-299) (Plasmodium falciparum (strain Lek174)). In words: SPR. In general terms: In SPR one partner is held on a chip, and binding of the other changes the refractive index at the surface.

Sequence of KIR2DL1 as used in the SPR experiments with RBK21 (P43626 22-348): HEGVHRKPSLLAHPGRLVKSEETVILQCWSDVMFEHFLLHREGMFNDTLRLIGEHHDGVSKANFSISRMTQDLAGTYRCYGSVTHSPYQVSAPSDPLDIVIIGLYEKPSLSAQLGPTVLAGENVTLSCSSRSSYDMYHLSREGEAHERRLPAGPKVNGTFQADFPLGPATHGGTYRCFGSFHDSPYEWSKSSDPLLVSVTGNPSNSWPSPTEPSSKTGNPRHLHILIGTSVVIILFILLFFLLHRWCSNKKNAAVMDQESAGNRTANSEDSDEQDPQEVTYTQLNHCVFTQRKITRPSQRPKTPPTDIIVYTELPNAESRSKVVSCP
Sequence of KIR2DS1 as used in the SPR experiment with RBK21 (Q14954 22-304): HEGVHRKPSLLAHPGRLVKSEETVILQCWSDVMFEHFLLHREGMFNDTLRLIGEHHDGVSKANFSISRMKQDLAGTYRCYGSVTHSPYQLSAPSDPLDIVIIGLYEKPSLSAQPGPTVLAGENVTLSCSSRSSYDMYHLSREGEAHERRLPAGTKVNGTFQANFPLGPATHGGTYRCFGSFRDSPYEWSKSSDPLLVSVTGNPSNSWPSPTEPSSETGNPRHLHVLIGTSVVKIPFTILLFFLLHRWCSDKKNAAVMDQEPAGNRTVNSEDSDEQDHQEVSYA

In turn, “KIR2DL1 as used in the SPR experiments with RBK21 (from UniProt P43626 22-348) (receptor)” gave a pKd of 6.35. The figure for “KIR2DS1 as used in the SPR experiment with RBK21 (from UniProt Q14954 22-304) (receptor)” is 5.70.
